Assays:
Human VSIG4-L-His [1] = molecular target: T1, Human VSIG4-L-His (human, UniProt Q9Y279 20-283); test: BLI (Octet), IgG on AHC sensor, antigen 100 nM
T1 construct: long isoform ECD with His tag; also called hVSIG4-L
T1 sequence: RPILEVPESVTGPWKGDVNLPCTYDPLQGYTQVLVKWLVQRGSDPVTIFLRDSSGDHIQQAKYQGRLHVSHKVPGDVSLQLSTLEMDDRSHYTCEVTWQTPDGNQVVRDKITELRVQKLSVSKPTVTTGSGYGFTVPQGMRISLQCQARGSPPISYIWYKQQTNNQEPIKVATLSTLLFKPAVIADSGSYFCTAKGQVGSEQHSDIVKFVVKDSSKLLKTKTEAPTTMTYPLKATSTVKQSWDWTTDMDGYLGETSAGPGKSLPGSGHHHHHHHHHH

[2] = molecular target: T2, Cynomolgus Monkey VSIG4-L-His (cynomolgus monkey); test: BLI (Octet), IgG on AHC sensor, antigen 100 nM
T2 construct: ECD with His tag; also called cyVSIG4-L; cyno VSIG4-L-His
T2 chain: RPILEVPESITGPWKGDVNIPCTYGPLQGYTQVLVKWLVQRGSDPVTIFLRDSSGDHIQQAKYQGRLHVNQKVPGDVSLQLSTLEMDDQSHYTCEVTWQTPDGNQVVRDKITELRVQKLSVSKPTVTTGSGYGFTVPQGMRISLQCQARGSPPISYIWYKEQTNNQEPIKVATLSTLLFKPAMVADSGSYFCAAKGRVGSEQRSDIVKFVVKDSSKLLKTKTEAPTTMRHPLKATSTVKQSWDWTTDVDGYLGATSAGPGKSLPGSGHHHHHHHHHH

Human VSIG4-S-His = molecular target: T3, Human VSIG4-S-His (human, UniProt Q9Y279 20-283); test: BLI (Octet), IgG on AHC sensor, antigen 100 nM
T3 construct: short isoform ECD with His tag; also called hVSIG4-S; VISG4-S-His
T3 sequence: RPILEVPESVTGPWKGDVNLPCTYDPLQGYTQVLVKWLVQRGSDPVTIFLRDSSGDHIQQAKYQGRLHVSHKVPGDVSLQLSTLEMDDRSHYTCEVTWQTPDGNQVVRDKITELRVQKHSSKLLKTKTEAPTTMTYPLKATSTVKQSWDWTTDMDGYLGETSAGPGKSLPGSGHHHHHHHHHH

Human VSIG4-L-Fc [3] = molecular target: T4, Human VSIG4-L-Fc (human); test: BLI binning on hVSIG4-L-Fc, competitor 15C04 first;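 also: normalized to binding of second antibody without first competitor antibody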
T4 construct: also called hVSIG4-L-Fc; hVSIG4-L

Human VSIG4-L-Fc [4] = molecular target: T4, Human VSIG4-L-Fc; test: ligand competition ELISA (FJB), blocked ligand C3b
Human VSIG4-L-His [5] = molecular target: T1, Human VSIG4-L-His; test: BLI, IgG on AHC sensor, antigen 100 nM
[6] = molecular target: T2, Cynomolgus Monkey VSIG4-L-His; test: BLI, IgG on AHC sensor, antigen 100 nM
Human VSIG4-L-Fc [7] = molecular target: T4, Human VSIG4-L-Fc; test: ligand competition ELISA (FJB), blocked ligand iC3b
Human VSIG4-L-Fc [8] = molecular target: T4, Human VSIG4-L-Fc; test: BLI binning on hVSIG4-L-Fc, competitor 14D12 first;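 also: normalized to binding of second antibody without first competitor antibody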
Human VSIG4-L-Fc [9] = molecular target: T4, Human VSIG4-L-Fc; test: BLI binning on hVSIG4-L-Fc, competitor 12A12 first;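 also: normalized to binding of second antibody without first competitor antibody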
Human VSIG4-L-Fc [10] = molecular target: T4, Human VSIG4-L-Fc; test: BLI binning on hVSIG4-L-Fc, competitor 16E10 first;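 also: normalized to binding of second antibody without first competitor antibody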
Human VSIG4-L-Fc [11] = molecular target: T4, Human VSIG4-L-Fc; test: BLI binning on hVSIG4-L-Fc, competitor 14C05 first;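 also: normalized to binding of second antibody without first competitor antibody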
[12] = molecular target: T5, Human VSIG4-L-CHO (human VSIG4 long isoform on CHO-K1 cells) (human, UniProt Q9Y279 20-399); test: flow cytometry (FJB), 200 nM mAb, huVSIG4-L CHO-K1 cells
T5 construct: also called hVSIG4-L (flow cytometry)
T5 sequence: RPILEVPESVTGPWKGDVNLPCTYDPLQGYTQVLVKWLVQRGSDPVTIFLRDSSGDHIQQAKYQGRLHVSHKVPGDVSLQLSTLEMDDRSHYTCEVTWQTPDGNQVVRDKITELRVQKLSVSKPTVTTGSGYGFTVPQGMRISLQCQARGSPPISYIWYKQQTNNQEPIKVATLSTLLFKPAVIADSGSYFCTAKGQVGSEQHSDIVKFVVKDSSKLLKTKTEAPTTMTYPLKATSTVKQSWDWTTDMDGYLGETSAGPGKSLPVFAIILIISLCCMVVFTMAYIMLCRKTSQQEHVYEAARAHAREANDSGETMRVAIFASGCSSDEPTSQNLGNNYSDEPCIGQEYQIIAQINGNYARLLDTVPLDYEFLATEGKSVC

Human VSIG4-L-Fc [13] = molecular target: T4, Human VSIG4-L-Fc; test: BLI binning on hVSIG4-L-Fc, competitor 13H11 first;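 also: normalized to binding of second antibody without first competitor antibody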
Human VSIG4-L-Fc [14] = molecular target: T4, Human VSIG4-L-Fc; test: BLI cross-blocking on hVSIG4-L-Fc, competitor 16G02 first
Human VSIG4-L-His [15] = molecular target: T1, Human VSIG4-L-His; test: SPR (FJB)
[16] = molecular target: T2, Cynomolgus Monkey VSIG4-L-His; test: SPR (FJB)
[17] = molecular target: T5, Human VSIG4-L-CHO (human VSIG4 long …); test: flow cytometry (FJB), 200 nM mAb, huVSIG4-L CHO-K1 over parental CHO-K1
Human VSIG4-L-Fc [18] = molecular target: T4, Human VSIG4-L-Fc; test: BLI binning on hVSIG4-L-Fc, competitor 15A06 first;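 also: normalized to binding of second antibody without first competitor antibody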
Human VSIG4-L-Fc [19] = molecular target: T4, Human VSIG4-L-Fc; test: BLI binning on hVSIG4-L-Fc, competitor 12A08 first;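 also: normalized to binding of second antibody without first competitor antibody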
Human VSIG4-L-Fc [20] = molecular target: T4, Human VSIG4-L-Fc; test: BLI cross-blocking on hVSIG4-L-Fc, competitor 12A12 first
Human VSIG4-L-Fc [21] = molecular target: T4, Human VSIG4-L-Fc; test: ligand blocking of C3b, IgG

- Kd (Human VSIG4-L-His [1]): 19.1 nM
- Kd [2]: 19.5 nM
- Kd (Human VSIG4-S-His): 15.8 nM
- normalized maximum binding nm shift (Human VSIG4-L-Fc [3]): 0.76 normalized
- IC50 (Human VSIG4-L-Fc [4]): 0.9 nM
- KD relative to parental chimera (Human VSIG4-L-His [5]): 1 fold
- KD relative to parental chimera [6]: 1 fold
- IC50 (Human VSIG4-L-Fc [7]): 0.5 nM
- normalized maximum binding nm shift (Human VSIG4-L-Fc [8]): 0.7 normalized
- normalized maximum binding nm shift (Human VSIG4-L-Fc [9]): 0.13 normalized
- normalized maximum binding nm shift (Human VSIG4-L-Fc [10]): 0.62 normalized
- normalized maximum binding nm shift (Human VSIG4-L-Fc [11]): 0.72 normalized
- Binding (200 nM) MFI [12]: 106000 MFI
- normalized maximum binding nm shift (Human VSIG4-L-Fc [13]): 0.74 normalized
- binding signal (nm shift) (Human VSIG4-L-Fc [14]): 0.16 nm
- Kd (Human VSIG4-L-His [15]): 8.6 nM
- Kd [16]: 6.8 nM
- Binding (200 nM) Fold-Over-Parental [17]: 291 fold
- normalized maximum binding nm shift (Human VSIG4-L-Fc [18]): 0.77 normalized
- normalized maximum binding nm shift (Human VSIG4-L-Fc [19]): 0.86 normalized
- binding signal (nm shift) (Human VSIG4-L-Fc [20]): 0.13 nm
- Percent Blocking C3b (Human VSIG4-L-Fc [21]): 96%
B1: 12A12 mouse/human chimeric IgG4 (S228P) kappa (antibody, V domains shown)
VH: QVQMKQSGAELAKPGASVKMSCKASGYTFTNYWMHWVKQRPGQGLEWIGYINPSTGYTDYNQNFKDRATLTADKSSSTAYMQLSSLTSEDSAVYYCIRGSDYYGRDYWGQGTTLTVSS
VL: DIQMTQTTSSLSASLGDRVTISCRASQDISNYLNWYQQKPDGTLKLLIYYTSRLHSGVPSRFSGSGSGTDYSLTISNLEQEDIATYFCRQGNTLPWTFGGGTKLEIKR

Reference: patent US20230348603A1 (VERSEAU THERAPEUTICS, published 2023)
